This assay has as its target PiCDPK1, full-length 6X N-terminal His-fusion protein (Petunia inflata).

Chain of PiCDPK1, full-length 6X N-terminal His-fusion protein (Petunia inflata) (main, as listed by the source): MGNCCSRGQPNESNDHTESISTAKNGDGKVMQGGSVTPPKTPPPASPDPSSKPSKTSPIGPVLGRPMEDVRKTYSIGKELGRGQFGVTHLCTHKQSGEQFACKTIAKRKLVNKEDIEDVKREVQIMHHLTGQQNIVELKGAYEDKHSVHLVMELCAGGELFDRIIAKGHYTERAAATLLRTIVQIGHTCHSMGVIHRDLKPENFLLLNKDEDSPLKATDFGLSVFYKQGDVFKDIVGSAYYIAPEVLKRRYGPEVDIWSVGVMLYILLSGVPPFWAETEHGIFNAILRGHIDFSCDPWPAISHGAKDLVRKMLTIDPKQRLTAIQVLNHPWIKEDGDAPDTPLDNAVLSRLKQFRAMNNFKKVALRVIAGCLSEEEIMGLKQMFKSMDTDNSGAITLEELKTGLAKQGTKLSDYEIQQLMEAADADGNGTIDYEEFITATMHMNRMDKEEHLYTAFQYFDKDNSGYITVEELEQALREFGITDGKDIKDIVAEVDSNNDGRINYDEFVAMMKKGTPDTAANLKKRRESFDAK

On to “PiRhoGDI1, full-length 6X N-terminal His-fusion protein (natural protein)”, for which the Km of the phosphorylation of PiRhoGDI1 by PiCDPK1 (Michaelis-Menten conditions) is 2.2 µM and the Vmax of the phosphorylation of PiRhoGDI1 by PiCDPK1 (Michaelis-Menten conditions) is 1920 pmol/min/mg.

The record behind these values is article PMC8838988.
